Experimental data from US20080207488A1, “Method for Detecting Peptides Comprising a Cross-B Structure” (priority 2005, published 2008).

T1: factor XII (Homo sapiens, UniProt P00748)
T1 construct: purchased Calbiochem, EMD Biosciences #233490
T1 sequence (P00748 20-615): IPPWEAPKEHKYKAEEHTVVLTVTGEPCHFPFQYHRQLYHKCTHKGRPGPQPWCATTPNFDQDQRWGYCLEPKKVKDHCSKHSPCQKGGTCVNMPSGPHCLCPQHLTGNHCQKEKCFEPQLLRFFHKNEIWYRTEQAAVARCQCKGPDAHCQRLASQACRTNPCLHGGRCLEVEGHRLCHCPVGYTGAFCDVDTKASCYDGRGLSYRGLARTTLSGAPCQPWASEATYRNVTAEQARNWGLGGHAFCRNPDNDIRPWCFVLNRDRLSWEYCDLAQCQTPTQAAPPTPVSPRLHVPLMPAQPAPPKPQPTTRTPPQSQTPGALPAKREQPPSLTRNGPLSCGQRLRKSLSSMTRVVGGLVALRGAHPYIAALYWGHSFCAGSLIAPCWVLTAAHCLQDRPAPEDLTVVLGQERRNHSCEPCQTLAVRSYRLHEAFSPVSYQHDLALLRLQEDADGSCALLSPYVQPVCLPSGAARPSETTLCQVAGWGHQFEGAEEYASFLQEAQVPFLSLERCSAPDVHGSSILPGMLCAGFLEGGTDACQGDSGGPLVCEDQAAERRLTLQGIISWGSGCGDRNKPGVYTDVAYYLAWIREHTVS

B1: plasma β2GPI: β2-glycoprotein I purified from fresh human plasma (protein)
chain: GRTCPKPDDLPFSTVVPLKTFYEPGEEITYSCKPGYVSRGGMRKFICPLTGLWPINTLKCTPRVCPFAGILENGAVRYTTFEYPNTISFSCNTGFYLNGADSAKCTEEGKWSPELPVCAPIICPPPSIPTFATLRVYKPSAGNNSLYRDTAVFECLPQHAMFGNDTITCTTHGNWTKLPECREVKCPFPSRPDNGFVNYPAKPTLYYKDKATFGCHDGYSLDGPEEIECTKLGNWSAMPSCKASCKVPVKKATVVYQGERVKIQEKFKNGMLHGDKVSFFCKNKEKKCSYTEDAQCIDGTIEVPKCFKEHSSLAFWKTDASDVKPC
B2: recombinant β2GPI: recombinant human β2-glycoprotein I made using insect cells (protein)
chain: B1 chain

Tests used:
[1] = ThT fluorescence of LPS-protein mixtures; assay type: physicochemical; details: 1 mg ml^−1 protein exposed to 600 μg ml^−1 LPS (FIG. 4C)
Description: (§1) Fluorescence of ThT-protein/peptide adducts was measured as follows. […] Fluorescence was measured at 485 nm upon excitation at 435 nm. Background signals from buffer, buffer with ThT and protein/peptide solution without ThT were subtracted from corresponding measurements with protein solution incubated with ThT. […] Fluorescence was measured in triplicate on a Hitachi F-4500 fluorescence spectrophotometer (Ltd., Tokyo, Japan).
Subsequently, the ability to enhance ThT fluorescence was determined with 40× diluted solution, as described above. […]

[2] = ThT fluorescence of CpG-ODN-protein mixtures; assay type: physicochemical; details: 1 mg ml^−1 protein exposed to 21.4 μg ml^−1 CPG-ODN (FIG. 4F)
Description: as §1
Enhancement of ThT fluorescence was measured similarly as described above. […]

[3] = ThT fluorescence of β2GPI with or without CL vesicles or DXS500k; assay type: physicochemical; details: for ThT fluorescence after exposure to CL vesicles or DXS: 25 μg ml^−1 β2GPI, 100 μM CL vesicles or 250 μg ml^−1 DXS
Description: ThT fluorescence of β2GPI was measured as follows. […] CL vesicles were prepared according to an established procedure. Briefly, CL was dried under a stream of nitrogen. The lipids were resuspended to a concentration of 10 mg ml^−1 in 25 mM Tris-HCl, pH 7.3, 150 mM NaCl by vigorous agitation, using a vortex. In the ThT fluorescence assay, fluorescence of β2GPI in buffer, of CL or DXS500k in buffer, of buffer and ThT alone, and of β2GPI-CL adducts and β2GPI-DXS500k adducts, with or without ThT, was recorded as described above (section ThT fluorescence). In addition, TEM images were recorded with CL, β2GPI from human plasma, with or without CL, and with recombinant β2GPI, as described^1.

[4] = molecular target: T2, tPA (Homo sapiens, UniProt P00750); assay: Plasminogen-activation assay (tPA-mediated Plg to Pls, S-2251); assay type: biochemical; details: 100 μg ml^−1 protein
T2 construct: purchased Boehringer-Ingelheim (Actilyse, Alteplase)
T2 sequence (P00750 36-562): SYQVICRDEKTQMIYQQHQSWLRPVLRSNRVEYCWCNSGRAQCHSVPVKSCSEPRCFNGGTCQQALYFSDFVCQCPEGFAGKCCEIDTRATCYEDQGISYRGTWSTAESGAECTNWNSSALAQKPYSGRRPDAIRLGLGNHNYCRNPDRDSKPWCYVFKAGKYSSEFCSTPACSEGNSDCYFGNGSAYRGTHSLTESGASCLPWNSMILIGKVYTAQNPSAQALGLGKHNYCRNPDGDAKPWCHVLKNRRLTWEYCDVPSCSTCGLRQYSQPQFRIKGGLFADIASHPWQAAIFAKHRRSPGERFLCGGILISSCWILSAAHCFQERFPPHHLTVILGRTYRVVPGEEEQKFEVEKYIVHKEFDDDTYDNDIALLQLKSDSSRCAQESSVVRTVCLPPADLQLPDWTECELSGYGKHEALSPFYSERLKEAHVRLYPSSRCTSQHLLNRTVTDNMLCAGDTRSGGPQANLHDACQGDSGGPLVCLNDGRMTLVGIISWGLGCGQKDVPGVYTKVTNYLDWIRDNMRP
Description: Plasmin (Pls) activity was assayed as described^7. Peptides and proteins that were tested for their stimulatory ability were regularly used at 100 μg ml^−1. […] Chromogenic substrate S-2251 (Chromogenix, Instrumentation Laboratory SpA, Milano, Italy) was used to measure Pls activity. Conversion of zymogen factor XII (#233490, Calbiochem, EMD Biosciences, Inc., San Diego, Calif.) to proteolytically active factor XII (factor XIIa) was assayed by measurement of the conversion of chromogenic substrate Chromozym-PK (Roche Diagnostics, Almere, The Netherlands) by kallikrein. Chromozym-PK was used at a concentration of 0.3 mM. Factor XII, human plasma prekallikrein (#529583, Calbiochem) and human plasma cofactor high-molecular weight kininogen (#422686, Calbiochem) were used at concentrations of 1 μg ml^−1. […] Assays were performed using microtiter plates (Costar, Cambridge, Mass., USA). Peptides and proteins were tested for their ability to activate factor XII. […] The conversion of Chromozym-PK was recorded kinetically at 37° C. for at least 60 minutes. […] With S-2222, activation of factor XII in plasma was measured, using 60% v/v plasma, diluted with substrate and H2O with or without potential cofactor. Furthermore, auto-activation of factor XII was measured by incubating 53 μg ml^−1 purified factor XII in 50 mM Tris-HCl buffer pH 7.5 with 1 mM EDTA and 0.001% v/v Triton-X100, with S-2222 and H2O with or without potential cofactor.
Formulated protein therapeutics were obtained from the local hospital pharmacy and were used as supplied by the manufacturers. […] Enhancement in fluorescence of ThT and Congo red was measured with all formulated protein therapeutics. […]
To prepare structurally altered ovalbumin (OVA) with amyloid cross-β structure conformation, purified OVA (Sigma, A-7641, lot 071k7094) was heated to 85° C. […] Native OVA (nOVA) and heat-denatured OVA (dOVA) were tested in the ThT fluorescence assay and in the Plg-activation assay. In the fluorescence assay and in the Plg-activation assay, 25 and 100 μg ml^−1 nOVA and dOVA were tested, respectively. […]

[5] = tested on: anti-β2GPI auto-antibodies; assay: Interference with binding of anti-β2GPI autoantibodies to immobilized β2GPI; design: species or system human; details: antibodies from Anti-phospholipid syndrome patients
Description: When plasma derived β2GPI is coated onto hydrophilic ELISA plates, anti-β2GPI auto-antibodies isolated from plasma of antiphospholipid syndrome auto-immune patients can bind^14. To study the influence of co-incubations of the coated β2GPI with the antibodies together with plasma β2GPI or recombinant β2GPI, concentration series of β2GPI were added to the patient antibodies. Subsequently, binding of the antibodies to coated β2GPI was determined.

[6] = molecular target: T1, factor XII; assay: ELISA, binding of β2GPI to immobilized factor XII
Description: (§2) Binding of purified human factor XII from plasma (Calbiochem) or of purified recombinant human tPA to β2GPI purified from human plasma, or to recombinant human β2GPI was tested in an ELISA. Ten μg of factor XII or tPA in PBS was coated onto wells of a Costar 2595 ELISA plate (Cambridge, USA) and incubated with concentration series of the two β2GPI preparations. Binding of β2GPI was assessed with monoclonal antibody 2B2^13.

[7] = molecular target: T2, tPA; assay: ELISA, binding of β2GPI to immobilized tPA
Description: as §2

Row | Molecule | ThT fluorescence enhancement [1] | increased ThT fluorescence [2] | ThT fluorescence after exposure to CL vesicles or DXS [3] | stimulation of tPA-mediated conversion of Plg to Pls [4] | inhibition of binding of anti-β2GPI auto-antibodies to immobilized β2GPI [5] | binding to factor XII [6] | binding to tPA [7] | ThT fluorescence signal of β2GPI preparation ([3]; without CL or DXS500k)
1 | B1 | ~2 times | ~2 factor | increased fluorescence of ThT | not | minor effect on antibody binding | not bind | not bind | 
2 | B2 | ~4 times | approximately 5 factor | increased fluorescence of ThT | stimulate tPA-mediated conversion of Plg to Pls | efficiently inhibits binding |  |  | higher ThT fluorescence signal
